Assay results as given in the NTF2 design screens of Basanta et al. (2020).

Experiment: protease stability score; higher = more stable; yeast display proteolysis, trypsin and chymotrypsin;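 also: relative to predicted unfolded state with 0 unfolded-like and 1 meaning tenfold more protease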

Sequence | protease stability score
SEEEEWAHELMRLLIEFNETGDEHELHNLIDPNVRIVIGEYTIIGREIAIEWTRQARIKRVHIEDYRFQGDKLHVDSRSNGKYGDKEDTLKVEIIVEKINGKWVVREVRVK | 2.06
SEEEEWIIKVLRELTKSMETGDEDHLHHLADPDVRLHVGDKEFHGREDFKKWYTHLRIKHFELTDMRIQGEKAHLKVRVHMRYGDKEDRKEVDFTMIKIDGRWYLHSVHVR | 2.09
SEEEEWIRRALEILIEIIRTGDEDSSKRYVDPHVRLHIGDKEFHGREDFTRMVHELFNRVDHIEIRIHDMRIINGQAHVDTELILRQGDKEIVLRTEIVLLKFDGKWIMESVHIR | 1.29
SEEEEWLRRYRHLFKHLWTTGDWRTLEELLDPRTRIDIDVGDKRYHIHGREDAVEFFHRERRELGIDHIEDKRTRVIDGQVEIHGKIHVDGRDETRTIHVIVVNGRMKYLYFHVE | 0.5
SEEEEWMEEFRERWERNFMTGDEDAMRELADPNVRIDIGEWDVHGREHLAELLKRHLDTLGINHVEFDHSTVIDGVIHIHMTINVNGKRIYSEVRLLVVNGKLKHSHYDIK | 1.01
SEEEEYALKVLEDILKAFLTGDWKITEHLLDPDARLEINGRNFVGRELIRKYLEEYLRRIDVVRIKIRHVEVQGDKNHLEGELIEIQGDKHKSMDMKIHLVIINGRVRREHVRVE | 2.15
SEEEEYAREFLERHLHSLKTGDWREEHKQADPEVRLHIGDKEFHGREIFVKIQREILEQADHLRIHIRRVHVQGDFLHIDGELRIRINGREHYIDRKVIVWKFNGRWHLHEVSIE | 1.39
SEEEEYARHFMTLVMSNLHTGNFEESRQNADPRTRVVIGDKRLHGWDEFAREYHEELRDRGVEIHFRVHHIEEFDGRLLTDFSIEIRYGDKVDHIRIRLYVTKINGRWFIKELEFR | 1.1
SEEEEYARKAAEEFIKHVETGNEDKIILLFDPNALYVYNGVELIGWHVFKEHTHRFKNIRRHITHVEIRVINGVVHVHIDGRFHVNGVDVEQEINIVFRKINGRWKIESNEERFR | 1.57
SEEEEYFRFVAEEFLKAWSTGNEEILERLFDPRVRLSFNGKQFHGRERVHDKLMQLLEHLGINHTRIDDREFRIIGDKAEIRIDLILHVGDKTLRVEVILIITKVNGVWMMKEVELRIH | 1.51
SEEEEYLRRVAELILRLLITGDEDEHHNLADPNTLVLIDINGVHIRDHGWWALRRWWEELERRVPGMRVRPRNMTVQGEKVILHMETVIGDKRLRLDFYHLVIDGKITSVEIKVDES | 2.4
SEEEEYVTKYTRHWLHSHVTGDEDYLRRYADPHVRVDINGREVHGRDEAAHFIERVLRHIREEHLDDRDFTVINGKSILHGELKISINGQEWRVNFDIIIVVVNGRFKREEVRVK | 0.858
SEEEFFTEMALRIYIELFETGDEHLIERLADPNVIIDFNGREFIGREYFSRIFHFLRRHWRMRDVTLKDWRVFDGRLHMEVQLYGKVNGQETQRDTHLVSTKINGRWRIHSDKWD | 1.25
SEEEHDAHIALKIWLDNLFTGDEEKLKEMMDPNVRMDFDGRHIHGREAIEMLLRRVDHWHHIEVRLEHLRIIGDKVILHIRQVEHIQIGDKHDRVHSNITLVFLKFDGKWFIREIRIK | 2.78
SEEEHDTRNALKIIIRTLITGNEDERRKLLDPHVRLEFEGWHEHGRDAAHLLSFWYRERVDVLRDSKVEHVELQGDKIRMDIILISEYNGVHTSTHVHIVVEKFNGRWHMRSIFFL | 1.16
SEEEHDTRRAIEIFLRIIMTGNEEDFERLFDPDARSEWNGVELHGREIITHIWLEIFDRFPNIKIEVRVERYRIQGEKVDIDMELIFRVGDKEDSRKTRMHVLKVDGKWTVKLFKIK | 2.33
SEEEHDVEFVRRLQEEVWHTGDEDKLEELLDPDARAHVNGVTYHGREFVHFFYKRVDHVHHYQIEETRVVGDKLHLISRTDLVINGQRVKTELRWNITKVNGKWRVTEVRID | 1.06
SEEEHDVERSIKHFLHILETGDWKELYEQMDPNVRIEIDGKFIIGREASVHHFNRYDHHRSRIEIKHVDVYGDKLNVHGHIHEHFSVNGKDITRSMRVILHARKVDGQWIHTEVRYK | 1.32
SEEEHDWRRALKIFLESLTTGDPKSITELVDPNARSDINGVDLHGREEWSKEMNRIKNLTIHDFEIEHISIYDGKAEINGHLDFEFDGVRTKIEVHLIFEKVDGKWVIQSRIVK | 0.895
SEEEHEADLLHKELWESWHTGDEKHLTNLMDPNVRLQIGDKHYVGRENALNVLHFIRRKLGIKYFELESVTHHEINGRIHTIFDGSILINGKTVKDKIEVDTEKYNGQWRITQINIDFR | 2.24
SEEEHEAIKHAYEFLEWLRTGDEEKIEKLLDPNVRLIIGDKTAHGREEFIRVMKEELERMGVNVFRLRDTRVNIFDGRVEIRFDTDLHFNGKTVHVELILRVHKVDGRWVLESVQVNIH | 1.48
SEEEHEEREAIEQLTRSLTTGDEHMMTNNMDPNVRIHIDGRDLVGREEAIKWLQEIHKKYKNIKYEIKRIDSFNGRLIVDGRVEYNGRRVDMHLIALKFDGRWLIEEVRVN | 2.26
SEEEHEFKKFLEHFLHRLTTGDEDELRRLADPHVRVLINGRHIVGMDEVTKVLRHLREIIEELRIDDIDLQGDKIRMDTRTRIRFIIGDWETKIETRTRIFIWKFNGRWIMEHIERD | 0.811
SEEEHEIRLAFKQVIETLITGDEHIMTQLLDPNVKIRQGDKILHGREEAHKWADEWLRRVDHFEDMKIHRHSVFNGRLELDSEQVVIQGDKTISIRSEIILTKINGRWQIEELRFD | 1.43
SEEEHEIRRAVEHWYRSLHTGDEEESIDLVDPHTITIVNGREVHGRHLMYEIMRKFKNAKIEFEITHHEVVNGRADVNMRLTVHIGDKTYETIIHLHTEKVNGRWTVRHWEVK | 1.46
